According to article PMC3816843:
Like-named read-outs stand apart in the source and are kept apart here.

Tests used:
[1] = molecular target: T1, Factor XIIa (alpha-FXIIa) (UniProt P00748;P00748 20-372;373-615); test: double-filter nitrocellulose binding
T1 sequence 1: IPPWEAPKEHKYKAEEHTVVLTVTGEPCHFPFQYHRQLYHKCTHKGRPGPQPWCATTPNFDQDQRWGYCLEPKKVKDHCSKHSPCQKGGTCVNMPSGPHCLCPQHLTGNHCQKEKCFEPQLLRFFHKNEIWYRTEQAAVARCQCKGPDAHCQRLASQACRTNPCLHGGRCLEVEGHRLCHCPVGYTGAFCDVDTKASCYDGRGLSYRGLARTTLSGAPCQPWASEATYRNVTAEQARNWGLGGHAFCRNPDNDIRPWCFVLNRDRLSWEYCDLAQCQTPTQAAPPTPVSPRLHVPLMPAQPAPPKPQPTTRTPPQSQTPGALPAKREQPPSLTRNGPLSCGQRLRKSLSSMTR
T1 sequence 2: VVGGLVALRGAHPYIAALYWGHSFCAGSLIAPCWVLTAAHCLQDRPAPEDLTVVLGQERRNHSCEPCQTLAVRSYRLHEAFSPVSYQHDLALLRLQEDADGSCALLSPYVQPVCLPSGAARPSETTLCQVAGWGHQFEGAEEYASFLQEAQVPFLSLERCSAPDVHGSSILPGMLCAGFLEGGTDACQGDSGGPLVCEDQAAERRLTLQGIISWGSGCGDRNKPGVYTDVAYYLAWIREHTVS

[2] = molecular target: T2, Factor XII (FXII, zymogen) (human, UniProt P00748 20-615); test: double-filter nitrocellulose binding
T2 sequence: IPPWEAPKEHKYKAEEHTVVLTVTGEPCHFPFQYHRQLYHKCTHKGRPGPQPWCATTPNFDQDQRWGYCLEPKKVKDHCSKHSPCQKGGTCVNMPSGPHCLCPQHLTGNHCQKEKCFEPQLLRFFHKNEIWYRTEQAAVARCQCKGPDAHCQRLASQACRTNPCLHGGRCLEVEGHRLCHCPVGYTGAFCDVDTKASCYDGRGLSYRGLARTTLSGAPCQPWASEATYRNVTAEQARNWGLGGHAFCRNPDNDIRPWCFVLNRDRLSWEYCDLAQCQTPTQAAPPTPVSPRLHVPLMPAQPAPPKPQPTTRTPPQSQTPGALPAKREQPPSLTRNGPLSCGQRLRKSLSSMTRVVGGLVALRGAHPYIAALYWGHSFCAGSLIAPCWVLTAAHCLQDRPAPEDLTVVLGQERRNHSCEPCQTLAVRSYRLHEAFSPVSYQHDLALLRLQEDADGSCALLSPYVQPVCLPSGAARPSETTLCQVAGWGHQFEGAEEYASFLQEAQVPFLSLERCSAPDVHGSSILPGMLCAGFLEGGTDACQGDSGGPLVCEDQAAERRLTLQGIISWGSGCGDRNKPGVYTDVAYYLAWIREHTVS

[3] = molecular target: T2, Factor XII (FXII, zymogen); test: double-filter nitrocellulose binding; remark: listed apart in the source
[4] = molecular target: T1, Factor XIIa (alpha-FXIIa); test: double-filter nitrocellulose binding; remark: listed apart in the source
[5] = molecular target: T2, Factor XII (FXII, zymogen); test: nitrocellulose filter binding
[6] = molecular target: T1, Factor XIIa (alpha-FXIIa); test: nitrocellulose filter binding

B1: R4cXII-1 (XNA)
RNA: GGGAGGACGAUGCGGCCAAAUCUCGGCUGCCAGCAGGUCACGAGUCGCAAGAUAACAGACGACUCGCUGAGGAUCCGAGA
modifications: all C and U are 2'-fluoro; A and G ribo
[1]
  Kd: 0.5 ± 0.2 nM
[2]
  Kd: 8.9 ± 1 nM

B2: R4cXII-1t (XNA)
RNA: GGCUCGGCUGCCAGCAGGUCACGAGUCGCAGCGACUCGCUGAGGAUCCGAG
modifications: all C and U are 2'-fluoro; A and G ribo
[3]
  Kd: 12.9 ± 2.06 nM
[4]
  Kd: 0.4 ± 0.02 nM

B3: scrambled control RNA (XNA)
RNA: GGGGCAGCCGUGGACCGACUGCCGCAUGCCAUUGACAGUCCGAUGCCAGGC
modifications: all C and U are 2'-fluoro; A and G ribo
[5]
  binding result: no binding
[6]
  binding result: no binding
